Laboratory results as given in PMC5019122.

Target: BG505-10MUT (HIV-1 (isolate BG505))
Experiment: SPR

B1: MutHGLL121 (fully mature PGT121 IgH with predicted germline IgL) (antibody, V domains shown)
VH: QMQLQESGPGLVKPSETLSLTCSVSGASISDSYWSWIRRSPGKGLEWIGYVHKSGDTNYSPSLKSRVNLSLDTSKNQVSLSLVAATAADSGKYYCARTLHGRRIYGIVAFNEWFTYFYMDVWGNGTQVTVSS
VL: SYVLTQPPSVSVAPGQTARITCGGNNIGSKSVHWYQQKPGQAPVLVVYDDSDRPSGIPERFSGSNSGNTATLTISRVEAGDEADYYCQVWDSSSDHPWVFGGGTKLTVL
Work on B1 yielded a Kd of 47 µM.
